B1: QET-Z34CM-PA48-Fc3K (peptide)
chain: QETFNMQCQRRFYEALHDPNLNEEQRNARIRSIREECGGAAPAAPAPAAPAAPAPAAPAAPAPAAPAAPAPAAPAAPAPAAPAAPAPGGRGNCAYHKGQIIWCTYH
modifications: C-terminal -NH2 as printed in the 1st table; N-terminal Gln designed to be pyroglutamylated
B2: QET-Fc3K-PA48-Z34CM (peptide)
chain: QETRGNCAYHKGQIIWCTYHGGAAPAAPAPAAPAAPAPAAPAAPAPAAPAAPAPAAPAAPAPAAPAAPAPGGFNMQCQRRFYEALHDPNLNEEQRNARIRSIREEC
modifications: C-terminal -NH2 as printed in the 1st table; N-terminal Gln designed to be pyroglutamylated
B3: QET-Fc3K-PA32-Z34CM (peptide)
chain: QETRGNCAYHKGQIIWCTYHGGAAPAAPAPAAPAAPAPAAPAAPAPAAPAAPAPGGFNMQCQRRFYEALHDPNLNEEQRNARIRSIREEC
modifications: C-terminal -NH2 as printed in the 1st table; N-terminal Gln designed to be pyroglutamylated
B4: QET-Z34CM-PA32-Fc3K (peptide)
chain: QETFNMQCQRRFYEALHDPNLNEEQRNARIRSIREECGGAAPAAPAPAAPAAPAPAAPAAPAPAAPAAPAPGGRGNCAYHKGQIIWCTYH
modifications: C-terminal -NH2 as printed in the 1st table; N-terminal Gln designed to be pyroglutamylated

The experiment has as its target T1, Fc protein of human IgG1 antibody (human, UniProt P01857-1 100-330 = IgG part, limits assumed).
T1 construct: domain: Fc; Immobilised on a CM5 chip by amine coupling at about 1400 RU; also called Fc region of an IgG1 antibody
The experiment is described as follows: SPR Biacore T200, 25 C, Fc of human IgG1 amine-coupled on CM5, peptide as analyte, single cycle kinetics. Background: SPR reads the build-up and loss of mass on a sensor chip optically.
Description: The affinity between each polypeptide and the Fc region of an IgG1 antibody was evaluated by SPR measurement (Biacore T200 (GE Healthcare)). The measurement was performed at 25° C., and HBS-EP+ was used as the running buffer. The Fc protein of human IgG1 antibody, as the ligand, was diluted to 30 g/mL in sodium acetate buffer, pH 4.5 (GE Healthcare) and immobilized on the surface of a CM5 Sensor Chip (GE Healthcare) at approximately 1400 RU using the amine coupling method. The peptides were diluted to 100 nM in HBS-EP+ buffer containing 0.1% DMSO. The measurement was performed using the single cycle kinetics method, with an analyte injection time of 120 seconds, a flow rate of 30 L/min, and a dissociation time of 120 seconds. The obtained sensorgrams were fitted based on the affinity to calculate the dissociation constant (KD).
B1: the affinity, expressed as Kd, was 8.98 nM.
In the case of B2, the dissociation constant (Kd) (in general, the free concentration of one partner at which half of the binding sites on the other are occupied at equilibrium, for simple one-to-one binding) was 8.48 nM.
Take B3: the Kd worked out at 12.7 nM.
In turn, B4 gave a dissociation constant Kd of 7.91 nM.

Source of the values: patent publication US20250101129A1 (AJINOMOTO, published 2025).
